Measurements published in patent US20120321641A1 (TORAY INDUSTRIES, published 2012).

T1: human CAPRIN-1 protein on human cancer cells and in human cancer tissues (human, UniProt Q14444 2-709)
T1 construct: whole, on cells; Endogenous protein of the cell lines and tissue arrays; also called CAPRIN-1 protein expressed on the cell membrane surfaces of human cancer cell lines
T1 sequence (looked up): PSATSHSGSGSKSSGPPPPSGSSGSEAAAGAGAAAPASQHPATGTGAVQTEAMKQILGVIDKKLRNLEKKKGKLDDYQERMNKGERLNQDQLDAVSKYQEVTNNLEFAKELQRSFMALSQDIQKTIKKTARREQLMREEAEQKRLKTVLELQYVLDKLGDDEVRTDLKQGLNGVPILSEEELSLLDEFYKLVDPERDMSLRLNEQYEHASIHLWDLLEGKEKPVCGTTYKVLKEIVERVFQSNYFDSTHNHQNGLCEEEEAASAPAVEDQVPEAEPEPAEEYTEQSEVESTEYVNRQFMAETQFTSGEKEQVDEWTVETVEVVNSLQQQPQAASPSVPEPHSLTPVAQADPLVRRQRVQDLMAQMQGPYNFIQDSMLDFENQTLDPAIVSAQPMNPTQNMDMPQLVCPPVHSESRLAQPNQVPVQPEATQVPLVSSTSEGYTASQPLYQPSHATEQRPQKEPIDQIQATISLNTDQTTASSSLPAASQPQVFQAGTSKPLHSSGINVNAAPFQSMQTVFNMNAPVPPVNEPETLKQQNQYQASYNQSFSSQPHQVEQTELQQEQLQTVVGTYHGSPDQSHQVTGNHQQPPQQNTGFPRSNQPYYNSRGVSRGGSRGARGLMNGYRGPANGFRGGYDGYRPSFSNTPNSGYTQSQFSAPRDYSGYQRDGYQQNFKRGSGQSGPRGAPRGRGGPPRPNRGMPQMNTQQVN

T2: recombinant human CAPRIN-1 protein having the amino acid sequence represented by SEQ ID NO: 2 (human, UniProt Q14444 2-709)
T2 construct: The His-tag was cleaved off with enterokinase; also called antigen protein (human CAPRIN-1)
T2 sequence: T1 sequence (looked up)

B1: monoclonal antibody #1 prepared in Example 4 (antibody, V domains shown)
VH: AVTLDESGGGLQTPGGGLSLVCKASGFTFSSFDMGWVRQAPGKGLEFVAQINDAGSRTWYATAVKGRATISRDNGQTTVRLQLNNLRAEDTGTYYCTRGSGYVGAGAIDAWGHGTEVIVS
VL: AALTQPSSVSANPGETVKITCSGGSGYYGWYQQQKSPGSAPVTVIYQNDKRPSDIPSRFSGSGSGSTNTLTITGVQAEDEAVYFCGRYDSTDSGIFGAGTTLTVL
notes: also called anti-CAPRIN-1 monoclonal antibody
B2: chicken monoclonal antibody #1 (antibody, V domains shown)
VH: B1 VH
VL: B1 VL
notes: Chicken hybridoma antibody tested as culture supernatant and detected with anti-chicken IgY/IgG secondary antibodies; the chicken constant regions are not; also called anti-CAPRIN-1 monoclonal antibody #1

Key:
[1] = target: T1, human CAPRIN-1 protein on human cancer …; assay: immunohistochemical staining of paraffin-embedded human cancer tissue arrays
Method: After 3 hours of treatment of the human breast cancer tissue array at 60° C., the array was placed in a staining bottle filled with xylene, followed by xylene replacement being repeated three times every 5 minutes. Next, a similar procedure was performed with ethanol and PBS-T instead of xylene. The human breast cancer tissue array was placed in a staining bottle filled with 10 mM citrate buffer (pH 6.0) containing 0.05% Tween20. After 5 minutes of treatment at 125° C., the array was left to stand at room temperature for 40 minutes or more. Excess water around the sections was removed with Kimwipes, the sections were circled with a DAKOPEN, and Peroxidase Block (DAKO) was added dropwise in appropriate amounts. After left to stand at room temperature for 5 minutes, the array was placed in a staining bottle filled with PBS-T, followed by PBS-T replacement being repeated three times every 5 minutes. As a blocking solution, a PBS-T solution containing 10% FBS was placed on the array, and then the array was left to stand in a moist chamber at room temperature for 1 hour. Next, a solution of the monoclonal antibody #1 of 10 μg/ml adjusted with a PBS-T solution containing 5% FBS, which reacts with cancer cell surfaces and had been prepared in Example 4, was placed on, and the array was left to stand overnight in a moist chamber at 4° C. […]

[2] = target: T2, recombinant human CAPRIN-1 protein …; assay: ELISA; CAPRIN-1 protein coated at 1 ug/ml, hybridoma culture supernatant, HRP anti-chicken IgY
Method: The thus selected hybridomas were added to a 96-well plate at 0.5 cells per well and then cultured. After 1 week, hybridomas that had formed single colonies in wells were observed. These cells in the wells were further cultured, and then hybridomas were selected using as a marker the binding affinity of antibodies produced by the cloned hybridomas to the CAPRIN-1 protein. The CAPRIN-1 protein solution (1 μg/ml) prepared in Example 2 was added to a 96-well plate at 100 μl per well, and then left to stand at 4° C. for 18 hours. Each well was washed with PBS-T three times, 400 μl of a 0.5% BSA solution was added per well, and then the resultant was left to stand at room temperature for 3 hours. The solution was removed, and then the wells were washed three times with 400 μl of PBS-T per well. 100 μl of each culture supernatant of the above-obtained hybridomas was added per well, and then the plate was left to stand at room temperature for 2 hours. After washing each well three times with PBS-T, 100 μl of an HRP-labeled anti-chicken IgY antibody (SIGMA) diluted 5000-fold with PBS was added per well and then left to stand at room temperature for 1 hour. […] After color development, 100 μl of 1N sulfuric acid was added per well to stop the reaction and then absorbances at 450 nm and 595 nm were measured using an absorption spectrometer. […]

[3] = target: T1, human CAPRIN-1 protein on human cancer …; assay: flow cytometry on MDA-MB-231V human breast cancer cells, hybridoma culture supernatant, FITC anti-chicken IgG
Method: Next, of those monoclonal antibodies, antibodies reactive with the cell surfaces of breast cancer cells expressing CAPRIN-1 were selected. Specifically, 5×10⁵ cells of the human breast cancer cell line MDA-MB-231V were subjected to centrifugation in a 1.5-ml microcentrifuge tube, and 100 μl of the culture supernatant of each of the above hybridomas was added to the tube, and then the tube was left to stand on ice for 1 hour. After washing with PBS, an FITC-labeled goat anti-chicken IgG (H+L) antibody (SouthernBiotech) diluted 30-fold with PBS containing 0.1% FBS was added, and then the resultant was left to stand on ice for 1 hour. After washing with PBS, fluorescence intensity was measured using a FACS caliber (Becton, Dickinson and Company). Meanwhile, procedures similar to the above were performed for medium for culturing hybridomas, so that a control sample was obtained.

Row | binding result [1] | binding result [2] | binding result [3] | Binder
1 | binds | – | – | B1
2 | – | binds | binds | B2
